Drawing on doi:10.1101/2022.09.25.509378, this text covers stoichiometry N for one substance.

One may read the stoichiometry N as a count of units in the complex or per binding partner.

For test [1], the target named is bacteriophage λ terminase protomer (TerL•TerS2) (bacteriophage λ) (UniProt P03708). In words: cryo-EM 2D class averages.
The target is the same in test [2]. Description: native MS.
The target is the same in test [3]. In words: SAXS.
Test [4] has the same target. In words: AUC.
For test [5] the target is unchanged. In words: AUC. This is another data set of the same source.

For the substance “bacteriophage λ terminase protomer (TerL•TerS2) (from UniProt P03708 1-641; P03707 1-181) (complex)”, the stoichiometry N in test [1] is 5; in test [2] it was 5 protomers; in test [3], 4.4 protomers; in test [4], 3.3 to 4.4 protomers; in test [5], 4.5 S.
